Data published in US7786356B2, “Method for the production of calendic acid, a fatty acid containing delta 8,10,12 conjugated double bonds and related fatty acids having a modification at the delta 9 position” (E.I. du Pont de Nemours and Company, priority 1999, dated 2010).

B1: CalFad2-2: Calendula officinalis fatty acid modifying enzyme (cDNA SEQ ID NO:3, protein SEQ ID NO:4) forming conjugated double bonds at delta-9 position (protein, listed as Calendula officinalis)
chain: MGKAASAKKVLERVPISKPPFEYNDLKKAVPPHCFSRPLSRSLYFLFHDIIVTCILFYVASNYIHMLPRFLSCIVWPVYWISQGVFLGRLWMIGHECGHHSFSNYRWVDDTVGFLIHTATLTPYFSFKYSHRNHHAHTNSMEYDEVHIPKRKSEALYFEFLGNNPIGLMITMLCKLTFGYAAYIMFNYTGKKHKSGGLASHFYPQSPLFNDSERNHVLFSDIGICIVLYACYRIVTVTGAMPAFYVYGIPWVIMSAILFAATYLQHTHPSIPHYDTTEWNWLRGALSTIDRDLGFFNMNKTHYHVIHHLFPVIPEYHAQEATEAIKPILGQYYKYDGTPFLKALWREMKECIYVESDEGQKKQGIYWFKNKT

Key:
[1] = system: pigs (barrows); test: Belly (fat) compression test in pigs fed conjugated fatty acids; format: in vivo, pig
Experimental: Experiments were conducted to evaluate the effects of feeding eleostearic (18:3) conjugated fatty acids on pig growth, carcass characteristics, and fat firmness. Twenty-four pigs (barrows, castrated males, from PIC genetics) with a capacity for high rates of daily lean growth and reduced back fat were randomly assigned by litter mates, weight, and block to three dietary treatments. Group one was fed normal corn feed, group two received normal corn feed supplemented with CLA, and the third group received normal corn feed supplemented with conjugated linolenic acids, i.e., ClnAs (18:3 conjugated fatty acids). Pigs were penned individually and identified by ear tattoo. […]
Live weights were recorded to determine average daily gains Phase 1 (150 to 200 lbs), and Phase 2 (200 to 250 lbs). […]
When pigs reached 250 pounds body weight they were slaughtered, processed and standard carcass measurements were collected. […] Bellies from the eight pigs in each study group were evaluated for fat firmness evaluated by measuring belly thickness before and after compression. […] Fat compression was quantified by subtracting the compressed belly thickness from the initial belly thickness. Belly thickness was measured using a micrometer. Data were analyzed as a randomized complete block design using the GLM (General Linear Model) procedure of SAS (Statistical Analysis Systems). […]

[2] = system: Saccharomyces cerevisiae INVSc1 cells; test: Expression of CalFad2-1 and CalFad2-2 in Saccharomyces cerevisiae; format: cell-based; details: cells grown in media containing 2 mM linoleic acid, 4 days at 16° C.; (w/w) of total fatty acids
Text: The Calendula officinalis clones CalFad2-1 and CalFad2-2 were digested with the restriction enzymes EcoRI and XhoI. The resulting DNA fragments containing the entire cDNA inserts were purified by agarose gel electrophoresis. The purified cDNAs were ligated into the EcoRI and XhoI sites of the Saccharomyces cerevisiae expression vector pYES2 (Invitrogen) using T4 DNA ligase (New England Biolabs). The resulting plasmids pYes2/CalFad2-1 and pYes2/CalFad2-2 were introduced into Saccharomyces cerevisiae INVSc1 (Invitrogen Corp.) cells by lithium acetate-mediated transformation [Sherman F, Fink G R, Hicks J B, Methods in Yeast Genetics: A Laboratory Course Manual, Cold Spring Harbor Lab. Press, Plainview, N.Y. (1987)]. Transformed cells were selected for their ability to grow in the absence of uracil. […] In cells grown in media containing linoleic acid, calendic acid (18:3Δ^8trans,10trans,12cis) was detected in amounts of up to 2.9% (w/w) of the total fatty acids of cultures expressing CalFad2-1 (FIG. 3) and in amounts of up to 0.2% of the total fatty acids of cultures expressing CalFad2-2. […] No calendic acid was detected in cultures harboring the expression vector without a cDNA insert or in cells grown in the absence of exogenous linoleic acid. […]

[3] = system: somatic soybean embryos; test: Production of calendic acid in somatic soybean embryos expressing CalFad2-1 or CalFad2-2; format: cell-based; details: single somatic embryos
Text: The open-reading frames of these cDNAs were amplified by PCR in order generate the appropriate flanking restriction enzyme sites for cloning into the soybean expression vector. The oligonucleotide primers used for amplification of the CalFad2-1 open-reading frame were: 5′-ttgcggccgc[…]-3′ (sense, SEQ ID NO:18) and 5′-ttgcggccg[…]-3′ (antisense, SEQ ID NO:19). The oligonucleotide primers used for amplification of the CalFad2-2 coding sequence were: 5′-agcggccgcTATACCATGGGCAAG-3′ (sense, SEQ ID NO:20) and 5′-tgcggccgcTATGTTAAACTTC-3′ (antisense, SEQ ID NO:21). [Note: The sequences shown in lower case contain an added NotI site along with additional bases to facilitate restriction enzyme digestion.] The template was the cDNA corresponding to either EST ecs1c.pk009.n14 (CalFad2-1) or EST ecs1c.pk08.a24 (CalFad2-2), and Pfu polymerase (Stratagene) was used for the amplification reactions. The resulting PCR products were subcloned into the intermediate vector pCR-Script AMP SK(+) (Stratagene) according to the manufacturer's protocol. The amplified CalFad2-1 and CalFad2-2 coding sequences were then released with NotI digestion and then subcloned into the corresponding site of the soybean expression vector pKS67.
The PCR amplified coding sequences of CalFad2-1 and CalFa2-2 were fused with the β-conglycinin promoter and phaseolin termination sequences in vector pKS67 was transformed into somatic soybean embryos as follows. To induce somatic embryos, cotyledons, 3-5 mm in length dissected from surface sterilized, immature seeds of a soybean cultivar A2872 or JACK-910 were cultured in the light or dark at 26° C. on an appropriate agar medium for 6-10 weeks. Somatic embryos that produce secondary embryos were then excised and placed into a suitable liquid medium. After repeated selection for clusters of somatic embryos that multiplied as early, globular staged embryos, the suspensions were maintained as described below.
Soybean embryogenic suspension cultures were maintained in 35 mL liquid media on a rotary shaker, 150 rpm, at 26° C. with florescent lights on a 16:8 hour day/night schedule. Cultures were subcultured every two weeks by inoculating approximately 35 mg of tissue into 35 mL of liquid medium.
Soybean embryogenic suspension cultures were then transformed with the vector pKS67 containing the coding sequence for CalFad2-1 and CalFad2-2 by the method of particle gun bombardment (Klein et al. (1987) Nature (London) 327:70, U.S. Pat. No. 4,945,050). A Du Pont Biolisticä PDS1000/HE instrument (helium retrofit) was used for these transformations.
To […] of a 60 mg/mL […] gold particle suspension were added (in order): 5 mL DNA (1 mg/mL), 20 ml spermidine (0.1 M), and […] CaCl2 (2.5 M). The particle preparation was then agitated for three minutes, spun in a microfuge for 10 seconds and the supernatant removed. The DNA-coated particles were then washed once in 400 mL 70% ethanol and resuspended in 40 mL of anhydrous ethanol. The DNA/particle suspension was sonicated three times for one second each. Five mL of the DNA-coated gold particles was then loaded on each macro carrier disk.
Approximately 300-400 mg of a two-week-old suspension culture was placed in an empty 60×15-mm petri dish and the residual liquid removed from the tissue with a pipette. For each transformation experiment, approximately 5 to 10 plates of tissue were bombarded. Membrane rupture pressure was set at 1100 psi and the chamber was evacuated to a vacuum of 28 inches mercury. The tissue was placed approximately 3.5 inches away from the retaining screen and bombarded three times. Following bombardment, the tissue was divided in half and placed back into liquid and cultured as described above.
Five to seven days post bombardment, the liquid media was exchanged with fresh media, and eleven to twelve days post bombardment with fresh media containing […] hygromycin. This selective media was refreshed weekly. […]

[4] = n = 5, ± standard deviation, weight % of total fatty acids

Molecule | fat firmness in pigs (in words) ([1]; addition to NC diets, versus NC diet) | Pork Belly Compression ([1]; initial minus compressed belly thickness, 50 lb weight for one hour, 0.50% conjugated fatty acid in diet, smaller number = greater firmness, 8 pigs per group) | calendic acid (18:3Δ8trans,10trans,12cis), amount of the total fatty acids [2] | Other, Fatty Acid Weight % ([3]; n = 5, weight % of total fatty acids) | 16:0, Fatty Acid Weight % [3, 4] | 18:0, Fatty Acid Weight % [3, 4] | 18:1, Fatty Acid Weight % [3, 4] | 18:2, Fatty Acid Weight % [3, 4] | 18:3, Fatty Acid Weight % [3, 4] | Calendic Acid, Fatty Acid Weight % [3, 4]
Conjugated linoleic acid [NC + CLA] | greater fat firmness | 28.0 mm |  |  |  |  |  |  |  | 
B1 |  |  | up to 0.2% | ≦1.7 Weight % | 12.3 ± 1.1 Weight % | 3.3 ± 0.5 Weight % | 8.6 ± 2.1 Weight % | 38.2 ± 3.4 Weight % | 17.7 ± 3.5 Weight % | 18.1 ± 3.6 Weight %
